Measurements: IntAct's records for PubMed 27524201

B1: Kremen protein 1 (Homo sapiens), Q96MU8 (parent)
chain: MAPPAARLALLSAAALTLAARPAPSPGLGPECFTANGADYRGTQNWTALQGGKPCLFWNETFQHPYNTLKYPNGEGGLGEHNYCRNPDGDVSPWCYVAEHEDGVYWKYCEIPACQMPGNLGCYKDHGNPPPLTGTSKTSNKLTIQTCISFCRSQRFKFAGMESGYACFCGNNPDYWKYGEAASTECNSVCFGDHTQPCGGDGRIILFDTLVGACGGNYSAMSSVVYSPDFPDTYATGRVCYWTIRVPGASHIHFSFPLFDIRDSADMVELLDGYTHRVLARFHGRSRPPLSFNVSLDFVILYFFSDRINQAQGFAVLYQAVKEELPQERPAVNQTVAEVITEQANLSVSAARSSKVLYVITTSPSHPPQTVPGSNSWAPPMGAGSHRVEGWTVYGLATLLILTVTAIVAKILLHVTFKSHRVPASGDLRDCHQPGTSGEIWSIFYKPSTSISIFKKKLKGQSQQDDRNPLVSD
B2: Kremen protein 1 (Homo sapiens), Q96MU8 (parent)
chain: B1 chain
partner: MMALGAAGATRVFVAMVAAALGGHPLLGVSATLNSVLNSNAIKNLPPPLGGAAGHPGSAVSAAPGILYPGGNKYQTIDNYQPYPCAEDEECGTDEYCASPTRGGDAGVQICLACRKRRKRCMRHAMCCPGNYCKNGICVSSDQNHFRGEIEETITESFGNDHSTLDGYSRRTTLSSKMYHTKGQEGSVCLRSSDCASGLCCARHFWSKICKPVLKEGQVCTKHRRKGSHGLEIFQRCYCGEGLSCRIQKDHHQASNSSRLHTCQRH

Variants of: B1
Conditions: with lrp6_human LRP6, O75581
Sequence of lrp6_human LRP6, O75581 (O75581 whole entry): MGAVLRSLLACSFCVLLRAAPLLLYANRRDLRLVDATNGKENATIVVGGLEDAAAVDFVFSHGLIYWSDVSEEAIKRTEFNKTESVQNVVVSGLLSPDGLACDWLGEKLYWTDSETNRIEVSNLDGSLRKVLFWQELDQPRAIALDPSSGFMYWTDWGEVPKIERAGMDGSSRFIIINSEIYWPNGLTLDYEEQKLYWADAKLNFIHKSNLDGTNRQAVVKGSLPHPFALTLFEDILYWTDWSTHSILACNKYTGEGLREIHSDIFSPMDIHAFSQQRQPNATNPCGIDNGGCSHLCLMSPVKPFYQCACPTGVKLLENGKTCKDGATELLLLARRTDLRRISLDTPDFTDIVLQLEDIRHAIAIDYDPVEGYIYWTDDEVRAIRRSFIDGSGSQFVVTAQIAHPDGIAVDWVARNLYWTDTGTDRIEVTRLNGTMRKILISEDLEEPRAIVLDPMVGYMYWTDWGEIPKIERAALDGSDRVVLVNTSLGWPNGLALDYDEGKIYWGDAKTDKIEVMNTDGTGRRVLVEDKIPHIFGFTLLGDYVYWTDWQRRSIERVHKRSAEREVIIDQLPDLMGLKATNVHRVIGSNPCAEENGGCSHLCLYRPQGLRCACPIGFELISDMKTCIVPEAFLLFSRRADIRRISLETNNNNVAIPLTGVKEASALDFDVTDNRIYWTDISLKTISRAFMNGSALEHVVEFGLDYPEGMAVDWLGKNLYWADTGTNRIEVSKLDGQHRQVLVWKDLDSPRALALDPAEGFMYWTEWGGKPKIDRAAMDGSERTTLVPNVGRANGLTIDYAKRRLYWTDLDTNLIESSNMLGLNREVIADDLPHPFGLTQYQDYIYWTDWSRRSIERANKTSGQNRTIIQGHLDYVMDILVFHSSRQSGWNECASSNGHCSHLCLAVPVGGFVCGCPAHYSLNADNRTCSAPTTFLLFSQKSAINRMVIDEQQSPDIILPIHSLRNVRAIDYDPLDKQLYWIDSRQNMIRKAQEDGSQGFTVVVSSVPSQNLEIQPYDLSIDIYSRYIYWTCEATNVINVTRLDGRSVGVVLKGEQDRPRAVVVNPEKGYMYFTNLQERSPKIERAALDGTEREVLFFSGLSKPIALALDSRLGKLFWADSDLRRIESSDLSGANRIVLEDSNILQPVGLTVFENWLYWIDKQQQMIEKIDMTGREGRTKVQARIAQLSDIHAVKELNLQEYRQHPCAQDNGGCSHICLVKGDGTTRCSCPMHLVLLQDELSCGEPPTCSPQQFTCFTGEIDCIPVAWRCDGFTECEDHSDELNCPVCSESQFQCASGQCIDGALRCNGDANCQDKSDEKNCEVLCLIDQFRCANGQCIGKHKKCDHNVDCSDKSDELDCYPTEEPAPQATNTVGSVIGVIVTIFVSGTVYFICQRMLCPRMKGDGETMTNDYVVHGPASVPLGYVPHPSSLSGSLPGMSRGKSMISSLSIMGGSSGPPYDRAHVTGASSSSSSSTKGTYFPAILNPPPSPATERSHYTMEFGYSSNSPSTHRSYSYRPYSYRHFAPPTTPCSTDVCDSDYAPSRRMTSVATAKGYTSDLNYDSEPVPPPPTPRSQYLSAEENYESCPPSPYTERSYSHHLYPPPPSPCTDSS

effect of a mutation on the interaction | Variant
disrupting interaction strength | A311S

Variants of: B2
Conditions: with dkk1_human DKK1, O94907

effect of a mutation on the interaction | Variant
disrupting interaction strength | D90N
disrupting interaction strength | V189N;F191S
disrupting interaction strength | A311S
